From patent publication US20240390512A1, “METHODS OF TREATING CHEMOTHERAPY-RESISTANT CANCER WITH AN ANTIBODY-DRUG CONJUGATE” (DAIICHI SANKYO COMPANY, LIMITED, priority 2021, published 2024)

T1: human CDH6 (Homo sapiens, UniProt P55285)
T1 construct: expressed in transfected cells; host or cells: 293α cells (HEK293 stably expressing integrin αv and β3)
T1 sequence (P55285 19-790): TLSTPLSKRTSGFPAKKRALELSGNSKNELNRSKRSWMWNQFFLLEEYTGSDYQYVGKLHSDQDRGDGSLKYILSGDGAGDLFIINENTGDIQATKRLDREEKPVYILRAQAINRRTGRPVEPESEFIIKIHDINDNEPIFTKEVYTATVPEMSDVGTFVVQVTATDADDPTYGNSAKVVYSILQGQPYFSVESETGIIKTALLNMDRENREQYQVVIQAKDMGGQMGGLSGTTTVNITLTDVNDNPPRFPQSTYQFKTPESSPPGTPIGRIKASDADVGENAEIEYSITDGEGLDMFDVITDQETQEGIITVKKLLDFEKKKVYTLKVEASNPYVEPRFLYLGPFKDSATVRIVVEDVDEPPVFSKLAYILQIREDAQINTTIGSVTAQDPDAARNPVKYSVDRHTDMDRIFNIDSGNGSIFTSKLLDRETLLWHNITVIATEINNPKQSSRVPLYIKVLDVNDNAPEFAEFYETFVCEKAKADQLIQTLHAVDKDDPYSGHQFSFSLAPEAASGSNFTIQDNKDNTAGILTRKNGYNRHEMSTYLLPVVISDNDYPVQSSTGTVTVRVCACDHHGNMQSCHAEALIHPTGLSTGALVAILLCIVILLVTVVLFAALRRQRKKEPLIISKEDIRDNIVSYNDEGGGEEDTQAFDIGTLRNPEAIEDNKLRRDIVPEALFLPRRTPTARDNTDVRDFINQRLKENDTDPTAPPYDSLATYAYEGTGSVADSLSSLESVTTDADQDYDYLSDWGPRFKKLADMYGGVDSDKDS

T2: hCDH6-transfected 293T cells (Homo sapiens, UniProt P55285)
T2 construct: expressed in transfected cells; host or cells: 293T cells (ATCC)
T2 sequence (P55285 19-790): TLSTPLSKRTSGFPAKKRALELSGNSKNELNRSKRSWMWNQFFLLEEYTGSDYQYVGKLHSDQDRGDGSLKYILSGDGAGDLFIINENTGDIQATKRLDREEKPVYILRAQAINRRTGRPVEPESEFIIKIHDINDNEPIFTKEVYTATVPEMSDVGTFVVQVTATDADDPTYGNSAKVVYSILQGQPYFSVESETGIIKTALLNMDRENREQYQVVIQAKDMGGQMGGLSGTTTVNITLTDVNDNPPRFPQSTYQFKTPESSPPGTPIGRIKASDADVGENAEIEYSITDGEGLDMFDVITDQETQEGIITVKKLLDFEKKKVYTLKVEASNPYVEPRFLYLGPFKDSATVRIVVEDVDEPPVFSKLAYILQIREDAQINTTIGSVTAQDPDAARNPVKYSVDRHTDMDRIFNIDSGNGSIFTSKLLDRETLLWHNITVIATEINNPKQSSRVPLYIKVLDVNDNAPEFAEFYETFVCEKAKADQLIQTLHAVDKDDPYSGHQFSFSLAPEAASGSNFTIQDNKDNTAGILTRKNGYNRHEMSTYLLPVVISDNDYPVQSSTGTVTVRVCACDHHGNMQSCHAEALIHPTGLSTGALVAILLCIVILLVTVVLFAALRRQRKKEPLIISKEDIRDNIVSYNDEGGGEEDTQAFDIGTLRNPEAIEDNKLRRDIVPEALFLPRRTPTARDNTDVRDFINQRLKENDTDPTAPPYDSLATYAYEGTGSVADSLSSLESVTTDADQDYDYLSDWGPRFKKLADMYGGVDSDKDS


Tests used:
human CDH6 = target: T1, human CDH6; test: Hybridoma screening by Cell-ELISA; type: binding; conditions: hybridoma culture supernatant; 293α cells transfected with pcDNA3.1-hCDH6
Procedure: 293α cells (a stable expression cell line derived from HEK293 cells expressing integrin αv and integrin β3) were prepared at 5×10^5 cells/mL in DMEM medium supplemented with 10% FBS. In accordance with transduction procedures for using Lipofectamine 2000 (Thermo Fisher Scientific Inc.), DNA of pcDNA3.1-hCDH6 or pcDNA3.1-cynoCDH6, or pcDNA3.1 as a negative control was introduced into the 293α cells, and the cells were dispensed in an amount of 100 μL/well onto a 96-well plate (Corning Inc.). Thereafter, the cells were cultured under conditions of 37° C. and 5% CO2 in DMEM medium supplemented with 10% FBS for 24 to 27 hours. The obtained transfected cells were used for Cell-ELISA in an adhesive state.
The culture supernatant of the 293α cells transfected with the expression vector prepared in Reference Example 1)-4-1 was removed, and the culture supernatant from each hybridoma was then added to the 293α cells transfected with pcDNA3.1-hCDH6 or pcDNA3.1-cynoCDH6, or pcDNA3.1. The cells were left standing at 4° C. for 1 hour. The cells in the wells were washed once with PBS (+) supplemented with 5% FBS, and thereafter, Anti-Rat IgG-Peroxidase antibody produced in rabbit (Sigma-Aldrich Co. LLC) that had been 500-fold diluted with PBS (+) supplemented with 5% FBS was added to the wells. The cells were left standing at 4° C. for 1 hour. The cells in the wells were washed three times with PBS (+) supplemented with 5% FBS, and thereafter, OPD coloring solution (which had been prepared by dissolving o-phenylenediamine dihydrochloride (Wako Pure Chemical Industries, Ltd.) and H2O2 in an OPD solution (0.05 M trisodium citrate, 0.1 M disodium hydrogen phosphate 12-water; pH 4.5), so that the substances became 0.4 mg/ml and 0.6% (v/v), respectively, was added in an amount of 100 μL/well to the wells. A coloring reaction was carried out with occasional stirring. Thereafter, 1 M HCl was added to the plate (100 μL/well) to terminate the coloring reaction, followed by measurement of the absorbance at 490 nm using a plate reader (ENVISION: PerkinElmer, Inc.).
The heavy chain subclass and the light chain type of the antibody were determined using a RAT MONOCLONAL ANTIBODY ISOTYPING TEST KIT (DS Pharma Biomedical Co., Ltd.).

[1] = target: T2, hCDH6-transfected 293T cells; test: Binding ability of rat anti-CDH6 antibody by flow cytometry; conditions: antibody final concentration 10 ng/mL
Procedure: The human CDH6-binding activity of the rat anti-CDH6 antibody produced in Reference Example 1)-7 was evaluated by flow cytometry. Using Lipofectamine 2000 (Thermo Fisher Scientific Inc.), pcDNA3.1-hCDH6 produced in Reference Example 1)-1 was transiently introduced into 293T cells (ATCC). The cells were cultured overnight under conditions of 37° C. and 5% CO2, and thereafter, a cell suspension was prepared. The suspension of the transfected 293T cells was centrifuged, and the supernatant was then removed. Thereafter, the cells were suspended by the addition of each of the 4 rat anti-CDH6 monoclonal antibodies (clone Nos: rG019, rG055, rG056 and rG061), which had been prepared in Reference Example 1)-7, or rat IgG control (R&D Systems, Inc.) (final concentration: 10 ng/mL). The cells were left standing at 4° C. for 1 hour. The cells were washed twice with PBS supplemented with 5% FBS, and then suspended by the addition of Anti-Rat IgG (whole molecule)-FITC antibody produced in rabbit (Sigma-Aldrich Co. LLC) that had been 50-fold diluted with PBS supplemented with 5% FBS. The cells were left standing at 4° C. for 1 hour. The cells were washed twice with PBS supplemented with 5% FBS, followed by detection using a flow cytometer (FC500; Beckman Coulter, Inc.). The data was analyzed using FlowJo (Tree Star, Inc.). In the histogram of FIG. 1, the abscissa depicts FITC fluorescence intensity indicating the amount of the antibody bound, and the ordinate depicts a cell count. […] The rat IgG control binds to neither of the cells. As a result, it was confirmed that the 4 produced rat anti-CDH6 monoclonal antibodies bind to 293T cells transfected with pcDNA3.1-hCDH6.

| Molecule | binding to human CDH6 (human CDH6) | binding to 293T cells transfected with pcDNA3.1-hCDH6 [1] |
| --- | --- | --- |
| rG019: rat anti-human CDH6 monoclonal antibody produced by hybridoma rG019; variable regions SEQ ID NO: 10 and 15 (antibody, listed as Rattus norvegicus, V domains shown) VL: DIQMTQSPSLLSASVGDRVTLNCKASQNIYKNLAWYQQKLGEGPKLLIYDANTLQTGIPSRFSGSGSGSDFTLTISSLQPEDVATYFCQQYYSGWAFGGVTNLELKRA VH: QVQLQQSGAELVKPGSSVKISCKASGYTFTRNFMHWIKQQPGNGLEWIGWIYCGDGETEYNQKFNGKATLTADRSSSTAYMELSRLTSEDSAVYFCARGVYGGFAGGYFDFWGQGVMVTVSS | bind specifically and strongly | bind |
| rG055: rat anti-human CDH6 monoclonal antibody produced by hybridoma rG055; variable regions SEQ ID NO: 20 and 25 (antibody, listed as Rattus norvegicus, V domains shown) VL: DVQMTHSPSYLAASPGESVSISCKTSKNISNYLVWYQQKPGEAYKLLIYSGSTLQSGTPSRFSGSGSGTDFTLTIRSLEPEDFGLYFCQQYYEKPFTFGSGTKLEIKRA VH: EVQLQESGPGLVRPSQSLSLSCSVTDYSITSNYWGWIRRFPGNKMEWMGYITYSGYTSYNPSLQSRISITRDTSKNQFFLQLNSVTAEDTATYYCARSINHGGYSYVVDAWGPGASVTVSS | bind specifically and strongly | bind |

The next lines start with the values.

| binding to human CDH6 (human CDH6) | binding to 293T cells transfected with pcDNA3.1-hCDH6 [1] | Molecule |
| --- | --- | --- |
| bind specifically and strongly | bind | rG056: rat anti-human CDH6 monoclonal antibody produced by hybridoma rG056; variable regions SEQ ID NO: 30 and 35 (antibody, listed as Rattus norvegicus, V domains shown) VL: DVQMTQSPSSLAASPGESVSISCRATKSIGIYLAWYQQKPGKTFKLLIYSGSTLQSGTPSRFSGSGSGTDFTLTIRSLEPEDFGLYFCQQFYENPFTFGSGTKLEIRRA VH: EVQLQESGPGLVKPSQSLSLTCSVTDYSITTYFWGWIRKFPGNKMEWMGYMSYRGGTSYNPSLKSRISITRDTSKNQFFLQLNSVTTEDTATYYCARCPNYGGHSLVFDYWGQGVMVTVSS |
| bind specifically and strongly | bind | rG061: rat anti-human CDH6 monoclonal antibody produced by hybridoma rG061; variable regions SEQ ID NO: 40 and 45 (antibody, listed as Rattus norvegicus, V domains shown) VL: DVQMTQSPSYLAASPGESVSISCKATKSISNYLAWYQQKPGEAYKVLIYSGSTLQSGTPSRFSGSGSGTDFTLTIRSLEPEDFGLYSCQQYYEKPLTFGSGTKLEIKRA VH: EVQLQESGPGLVKPSQSLSLTCSVTGYSITTYYWGWIRKFPGNKMEWMGYISYSGRTSYNPSLKSRMSITRDASKNQFFLQLNSVTTDDTATYYCARSPINHGGYWYFDFWGPGTMVTVSS |
